Source: paper PMC9106297, “Structure of a TRAPPII-Rab11 activation intermediate reveals GTPase substrate selection mechanisms” (Science Advances, 2022)

T1: Trs120 (TRAPPII-specific subunit, in purified TRAPPII) (S. cerevisiae, UniProt Q04183 1-1289)
T1 construct: Trs120, S. cerevisiae, endogenous; also called Trs120 lid; source: endogenous, purified from S. cerevisiae as a subunit of TRAPPII
T1 sequence (looked up): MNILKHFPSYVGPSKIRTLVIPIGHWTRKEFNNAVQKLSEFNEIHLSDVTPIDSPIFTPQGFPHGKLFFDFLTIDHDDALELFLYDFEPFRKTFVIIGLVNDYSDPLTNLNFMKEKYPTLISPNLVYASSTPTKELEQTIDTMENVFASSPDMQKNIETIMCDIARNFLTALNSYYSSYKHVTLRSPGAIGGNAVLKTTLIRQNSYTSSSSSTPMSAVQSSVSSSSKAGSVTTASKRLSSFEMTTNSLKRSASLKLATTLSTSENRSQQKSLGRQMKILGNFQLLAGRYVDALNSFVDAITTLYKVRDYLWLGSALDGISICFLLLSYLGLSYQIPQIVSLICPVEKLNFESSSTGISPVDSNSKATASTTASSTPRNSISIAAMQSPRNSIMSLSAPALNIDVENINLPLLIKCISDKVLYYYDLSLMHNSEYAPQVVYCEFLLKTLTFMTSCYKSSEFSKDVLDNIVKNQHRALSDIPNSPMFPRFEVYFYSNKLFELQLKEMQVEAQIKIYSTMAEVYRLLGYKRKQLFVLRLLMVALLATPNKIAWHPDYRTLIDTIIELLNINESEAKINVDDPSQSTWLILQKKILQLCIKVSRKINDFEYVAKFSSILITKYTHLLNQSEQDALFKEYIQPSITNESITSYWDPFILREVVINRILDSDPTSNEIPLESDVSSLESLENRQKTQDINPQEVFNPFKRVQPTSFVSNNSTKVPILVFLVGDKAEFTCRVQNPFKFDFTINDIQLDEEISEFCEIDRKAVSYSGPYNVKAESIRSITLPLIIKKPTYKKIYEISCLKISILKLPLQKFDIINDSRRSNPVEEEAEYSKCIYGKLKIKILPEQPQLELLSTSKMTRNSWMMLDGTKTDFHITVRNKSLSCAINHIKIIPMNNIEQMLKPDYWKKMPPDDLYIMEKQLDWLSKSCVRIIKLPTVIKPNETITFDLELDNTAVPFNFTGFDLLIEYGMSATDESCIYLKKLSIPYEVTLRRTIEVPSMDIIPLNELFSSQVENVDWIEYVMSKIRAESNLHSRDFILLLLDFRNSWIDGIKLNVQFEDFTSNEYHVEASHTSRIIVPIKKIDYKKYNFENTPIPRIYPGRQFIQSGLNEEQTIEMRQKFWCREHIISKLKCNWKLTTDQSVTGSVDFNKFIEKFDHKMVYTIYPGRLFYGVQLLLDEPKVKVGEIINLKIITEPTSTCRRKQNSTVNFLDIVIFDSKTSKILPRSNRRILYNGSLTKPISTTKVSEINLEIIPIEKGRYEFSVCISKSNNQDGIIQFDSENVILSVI

T2: Trs31 (TRAPP core subunit, in purified TRAPPII) (S. cerevisiae, UniProt Q03337 1-283)
T2 construct: Trs31, S. cerevisiae, endogenous; source: endogenous, purified from S. cerevisiae as a subunit of TRAPPII
T2 sequence (looked up): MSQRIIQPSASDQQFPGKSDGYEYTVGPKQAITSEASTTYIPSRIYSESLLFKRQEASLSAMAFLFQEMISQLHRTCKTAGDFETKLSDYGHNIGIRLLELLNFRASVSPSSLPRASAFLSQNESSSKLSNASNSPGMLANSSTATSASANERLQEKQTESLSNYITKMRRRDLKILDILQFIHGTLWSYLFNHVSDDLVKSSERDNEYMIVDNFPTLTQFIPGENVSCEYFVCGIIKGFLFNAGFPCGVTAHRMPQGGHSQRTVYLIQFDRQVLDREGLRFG

B1: Trs20 (TRAPP core subunit, in purified TRAPPII) (natural protein, S. cerevisiae, UniProt P38334 1-175, looked up)
chain: MPQYFAIIGKKDNPVYEIEFTNAENPQGFPQDLKELNPFILHASLDIVEDLQWQINPTSQLNGNGGNGSNGGGGFLRSRAVNNTDNCYLGKVDHFYGLAITAYISYSGMKFVMIHGNSANSSVVIDDNNMRSFYQEVHELYVKTLMNPFYKITDPIRSPAFDSRVRTLARKHLSK
notes: Trs20, S. cerevisiae, endogenous; source: endogenous, purified from S. cerevisiae as a subunit of TRAPPII
B2: Bet3 (TRAPP core subunit, in purified TRAPPII) (natural protein, S. cerevisiae, UniProt P36149 1-193, looked up)
chain: MVSTTQSRSLKAMGEEIWKNKTEKINTELFTLTYGSIVAQLCQDYERDFNKVNDHLYSMGYNIGCRLIEDFLARTALPRCENLVKTSEVLSKCAFKIFLNITPNITNWSHNKDTFSLILDENPLADFVELPMDAMKSLWYSNILCGVLKGSLEMVQLDCDVWFVSDILRGDSQTEIKVKLNRILKDEIPIGED
notes: Bet3, S. cerevisiae, endogenous; source: endogenous, purified from S. cerevisiae as a subunit of TRAPPII
B3: Trs23 (TRAPP core subunit, in purified TRAPPII) (natural protein, S. cerevisiae, UniProt Q03784 1-219, looked up)
chain: MAIETILVINKSGGLIYQRNFTNDEQKLNSNEYLILASTLHGVFAIASQLTPKALQLTQQTNIENTIPYIPYVGMSSNRSDTRNGGGNNNKHTNNEKLGSFKGDDFFKEPFTNWNKSGLRQLCTDQFTMFIYQTLTGLKFVAISSSVMPQRQPTIATTDKPDRPKSTSNLAIQIADNFLRKVYCLYSDYVMKDPSYSMEMPIRSNLFDEKVKKMVENLQ
notes: Trs23, S. cerevisiae, endogenous; source: endogenous, purified from S. cerevisiae as a subunit of TRAPPII
B4: Bet5 (TRAPP core subunit, in purified TRAPPII) (natural protein, S. cerevisiae, UniProt Q03630 1-159, looked up)
chain: MGIYSFWIFDRHCNCIFDREWTLASNSASGTINSKQNEEDAKLLYGMIFSLRSITQKLSKGSVKNDIRSISTGKYRVHTYCTASGLWFVLLSDFKQQSYTQVLQYIYSHIYVKYVSNNLLSPYDFAENENEMRGQGTRKITNRNFISVLESFLAPMVNQ
notes: Bet5, S. cerevisiae, endogenous; source: endogenous, purified from S. cerevisiae as a subunit of TRAPPII
B5: Rab11/Ypt32-7xHis (natural protein, S. cerevisiae, UniProt P51996 1-220, looked up)
chain: MSNEDYGYDYDYLFKIVLIGDSGVGKSNLLSRFTTDEFNIESKSTIGVEFATRTIEVENKKIKAQIWDTAGQERYRAITSAYYRGAVGALIVYDISKSSSYENCNHWLTELRENADDNVAVGLIGNKSDLAHLRAVPTDEAKNFAMENQMLFTETSALNSDNVDKAFRELIVAIFQMVSKHQVDLSGSGTNNMGSNGAPKGPTISLTPAPKEDKKKKSSN
notes: Ypt32 (yeast Rab11 paralog), S. cerevisiae; the C-terminal cysteines (residues 221 and 222) were substituted with the 7xHis tag; Made nucleotide-free with calf intestine alkaline phosphatase for the complex with TRAPPII; also called nucleotide-free Rab11/Ypt32; not shown: GST, N-terminal, cleaved; 7xHis, C-terminal, kept

How the values were obtained:
Experiment in all cases: cryo-EM structure; TRAPPII purified from yeast, incubated with tenfold molar excess of Rab11/Ypt32-7xHis and calf intestine alkaline phosphatase at 4°C overnight (nucleotide-free Rab), complex purified on Calmodulin Sepharose and by SEC; 10 mM tris (pH 8.0), 150 mM NaCl, 0.1% CHAPS, 1 mM Mg acetate, 1 mM dithiothreitol; single-particle cryo-EM
Conditions in all cases: both partners purified
[1] = target: T1, Trs120 (TRAPPII-specific subunit, in …)
[2] = target: B5
[3] = target: T2, Trs31 (TRAPP core subunit, in purified …)

Row | binding result [1] | binding result [2] | binding result [3] | Binder
1 | binds | – | – | B1
2 | – | binds | – | B2
3 | – | binds | – | B3
4 | – | binds | – | B4
5 | binds | – | binds | B5
